{
  "source": "paper PMC6053248",
  "about": "“GROWTH-REGULATING FACTOR 9 negatively regulates arabidopsis leaf growth by controlling ORG3 and restricting cell proliferation in leaf primordia”",
  "molecules": {"B1": {"name": "ORG3 EMSA competitor (dsDNA)", "DNA 1": "CTTTCACTTCATACAACCTGACACCAAATCATCCACATCA", "DNA 2": "TGTGGATGATTTGGTGTCAGGTTGTATGAAGTGAAAG"}, "B2": {"name": "ORG3 promoter 40-bp EMSA probe (dsDNA)", "DNA 1": "B1 DNA 1", "DNA 2": "TGATGTGGATGATTTGGTGTCAGGTTGTATGAAGTGAAAG"}, "B3": {"name": "ORG3 EMSA mutated competitor (dsDNA)", "DNA 1": "B1 DNA 1 with T19G", "DNA 2": "B2 DNA 2 with A22C"}, "B4": {"name": "GRFE1m2 (dsDNA)", "DNA 1": "CCGGTACTGGCCTGACACACCAGAACTTCA", "DNA 2": "TGAAGTTCTGGTGTGTCAGGCCAGTACCGG"}, "B5": {"name": "GRFE1m6 (dsDNA)", "DNA 1": "B4 DNA 1 with C11T, T13G, C18T", "DNA 2": "B4 DNA 2 with G13A, A18C, G20A"}, "B6": {"name": "GRFE1m3 (dsDNA)", "DNA 1": "B4 DNA 1 with C11T, C18A", "DNA 2": "B4 DNA 2 with G13T, G20A"}, "B7": {"name": "GRFE1m7 (dsDNA)", "DNA 1": "B4 DNA 1 with C11T, C16G, C18T", "DNA 2": "B4 DNA 2 with G13A, G15C, G20A"}, "B8": {"name": "GRFE1m5 (dsDNA)", "DNA 1": "B4 DNA 1 with C11T, A17T, C18T", "DNA 2": "B4 DNA 2 with G13A, T14A, G20A"}, "B9": {"name": "GRFE1m4 (dsDNA)", "DNA 1": "B4 DNA 1 with C11T, C12G, C18T", "DNA 2": "B4 DNA 2 with G13A, G19C, G20A"}, "B10": {"name": "GRFE1m1 (dsDNA)", "DNA 1": "B4 DNA 1 with C11A", "DNA 2": "B4 DNA 2 with G20T"}},
  "key": {"[1]": {"target": "T1, GRF9-CELD (Arabidopsis thaliana (Col-0?)) (UniProt Q8S9M3)", "T1 sequence": "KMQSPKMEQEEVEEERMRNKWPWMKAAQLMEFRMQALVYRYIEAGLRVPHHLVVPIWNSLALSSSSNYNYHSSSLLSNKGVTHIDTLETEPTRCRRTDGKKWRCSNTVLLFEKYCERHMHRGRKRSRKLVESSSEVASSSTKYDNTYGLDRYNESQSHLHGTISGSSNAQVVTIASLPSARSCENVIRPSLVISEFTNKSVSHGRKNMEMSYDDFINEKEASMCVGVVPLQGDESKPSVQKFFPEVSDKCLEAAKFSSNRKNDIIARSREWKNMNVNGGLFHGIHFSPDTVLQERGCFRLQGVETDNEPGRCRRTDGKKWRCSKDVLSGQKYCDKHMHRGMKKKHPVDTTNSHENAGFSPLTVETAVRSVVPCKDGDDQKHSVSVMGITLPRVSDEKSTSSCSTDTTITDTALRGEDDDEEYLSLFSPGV", "assay": "CELD plate binding assay (streptavidin plate)", "conditions": "CELD plate assay: 25 mM HEPES/KOH pH 7.0, 50 mM KCl, 0.5 mM DTT, 10 uM ZnCl2, 0.15 ug/ul herring sperm DNA, 0.3 mg/ml BSA, 10% glycerol, 0.025% NP-40, 2 pmol …"}, "GRF9-CELD [2]": {"target": "T2, GRF9-CELD (Arabidopsis thaliana, UniProt Q8S9M3 2-431)", "T2 sequence": "T1 sequence", "assay": "competition; molar excess vs labelled N10; CELD plate assay: 25 mM HEPES/KOH pH 7.0, 50 mM KCl, 0.5 mM DTT, 10 uM ZnCl2, 0.15 ug/ul herring sperm DNA, 0.3 mg/ml BSA, 10% glycerol, 0.025% NP-40, 2 pmol probe; binding temperature not stated; EMSA buffer not given (cited protocols)", "conditions": "protein: recombinant, tags: C-terminal CELD (cellulase D) fusion, 6xHis, label: none"}, "GRF9-CELD [3]": {"target": "T2, GRF9-CELD", "assay": "EMSA; CELD plate assay: 25 mM HEPES/KOH pH 7.0, 50 mM KCl, 0.5 mM DTT, 10 uM ZnCl2, 0.15 ug/ul herring sperm DNA, 0.3 mg/ml BSA, 10% glycerol, 0.025% NP-40, 2 pmol probe; binding temperature not stated; EMSA buffer not given (cited protocols)", "conditions": "protein: recombinant; tags: C-terminal CELD (cellulase D) fusion, 6xHis; label: 5'-DY682; blunt"}, "GRF9-CELD [4]": {"target": "T2, GRF9-CELD", "assay": "CELD plate binding assay (streptavidin plate); 10 uM ZnCl2; CELD plate assay: 25 mM HEPES/KOH pH 7.0, 50 mM KCl, 0.5 mM DTT, 10 uM ZnCl2, 0.15 ug/ul herring sperm DNA, 0.3 mg/ml BSA, 10% glycerol, 0.025% NP-40, 2 pmol probe; binding temperature not stated; EMSA buffer not given (cited protocols)", "conditions": "protein: recombinant; tags: C-terminal CELD (cellulase D) fusion, 6xHis; label: biotin"}},
  "note": "Numbering of substitutions follows the chain as printed.",
  "data": [
    {"molecule": "CCGGTACTGGTCTGACATACCAGAACTTCA (double strand) [GRFE1]", "values": [
      {"measurement": "binding signal (relative to GRFE1)", "setting": "[1]", "result": 1}
    ]},
    {"molecule": "AGGTAAGTTACTGACACACTCCATTCTTGG (double strand) [GRFE15]", "values": [
      {"measurement": "binding signal (relative to GRFE1)", "setting": "[1]", "result": 0.8}
    ]},
    {"molecule": "B1", "values": [
      {"measurement": "binding result", "setting": "GRF9-CELD [2]; 3' overhang 3 nt on strand 1 (so in the source)", "result": "binds"}
    ]},
    {"molecule": "B2", "values": [
      {"measurement": "binding result", "setting": "GRF9-CELD [3]", "result": "binds"}
    ]},
    {"molecule": "B3", "values": [
      {"measurement": "binding result", "setting": "GRF9-CELD [2]; blunt", "result": "no binding"}
    ]},
    {"molecule": "B4", "values": [
      {"measurement": "binding signal", "setting": "GRF9-CELD [4]", "result": "0.43 ± 0.04 relative to GRFE1"}
    ]},
    {"molecule": "B5", "values": [
      {"measurement": "binding signal", "setting": "GRF9-CELD [4]", "result": "0 relative to GRFE1"}
    ]},
    {"molecule": "B6", "values": [
      {"measurement": "binding signal", "setting": "GRF9-CELD [4]", "result": "0.89 ± 0.08 relative to GRFE1"}
    ]},
    {"molecule": "B7", "values": [
      {"measurement": "binding signal", "setting": "GRF9-CELD [4]", "result": "0 relative to GRFE1"}
    ]},
    {"molecule": "B8", "values": [
      {"measurement": "binding signal", "setting": "GRF9-CELD [4]", "result": "0 relative to GRFE1"}
    ]},
    {"molecule": "B9", "values": [
      {"measurement": "binding signal", "setting": "GRF9-CELD [4]", "result": "0 relative to GRFE1"}
    ]},
    {"molecule": "B10", "values": [
      {"measurement": "binding signal", "setting": "GRF9-CELD [4]", "result": "0.79 ± 0.03 relative to GRFE1"}
    ]}
  ]
}
